The labels stand for the following.
T1: human APJ receptor (human, UniProt P35414 1-380)
T1 sequence (looked up): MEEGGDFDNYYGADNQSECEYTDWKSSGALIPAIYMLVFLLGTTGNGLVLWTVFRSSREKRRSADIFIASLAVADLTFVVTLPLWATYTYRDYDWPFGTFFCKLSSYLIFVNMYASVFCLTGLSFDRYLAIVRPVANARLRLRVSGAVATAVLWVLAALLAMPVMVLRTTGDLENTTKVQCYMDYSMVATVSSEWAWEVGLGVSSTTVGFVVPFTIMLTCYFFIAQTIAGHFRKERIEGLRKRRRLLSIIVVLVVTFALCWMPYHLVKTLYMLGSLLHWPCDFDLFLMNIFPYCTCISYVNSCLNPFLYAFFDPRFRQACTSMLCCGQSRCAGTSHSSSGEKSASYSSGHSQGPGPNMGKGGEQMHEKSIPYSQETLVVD

T2: rat APJ receptor (rat, UniProt Q9JHG3 1-377)
T2 sequence (looked up): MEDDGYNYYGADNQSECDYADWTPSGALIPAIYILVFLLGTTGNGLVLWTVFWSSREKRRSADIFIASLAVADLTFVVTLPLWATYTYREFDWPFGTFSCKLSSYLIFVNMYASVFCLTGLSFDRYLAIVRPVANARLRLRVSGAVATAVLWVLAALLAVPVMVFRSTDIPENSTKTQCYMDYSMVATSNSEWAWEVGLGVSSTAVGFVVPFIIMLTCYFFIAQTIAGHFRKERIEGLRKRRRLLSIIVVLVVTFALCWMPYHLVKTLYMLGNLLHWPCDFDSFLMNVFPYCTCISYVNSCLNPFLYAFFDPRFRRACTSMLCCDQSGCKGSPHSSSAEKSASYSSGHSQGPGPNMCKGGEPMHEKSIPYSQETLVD

B1: SEQ ID NO: 317 (peptide)
peptide: Tridecanoyl-[γGlu][AEEA][AEEA][hArg][dR]Q[hArg]P[Nle][NMeL]AHKG[Oic][Phe(4-I)]P[dBip]-OH
SMILES: CCCCCCCCCCCCC(=O)N[C@@H](CCC(=O)NCCOCCOCC(=O)NCCOCCOCC(=O)N[C@@H](CCCCNC(=N)N)C(=O)N[C@H](CCCNC(=N)N)C(=O)N[C@@H](CCC(N)=O)C(=O)N[C@@H](CCCCNC(=N)N)C(=O)N1CCC[C@H]1C(=O)N[C@@H](CCCC)C(=O)N(C)[C@@H](CC(C)C)C(=O)N[C@@H](C)C(=O)N[C@@H](Cc1c[nH]cn1)C(=O)N[C@@H](CCCCN)C(=O)NCC(=O)N1[C@H](C(=O)N[C@@H](Cc2ccc(I)cc2)C(=O)N2CCC[C@H]2C(=O)N[C@H](Cc2ccc(-c3ccccc3)cc2)C(=O)O)C[C@@H]2CCCC[C@@H]21)C(=O)O
B2: SEQ ID NO: 490 (peptide)
peptide: Tridecanoyl-[γGlu][AEEA][AEEA][hArg]Q[hArg]P[hArg][Cha]SHKG[Oic][Nle]P[Phe(4-Cl)]-OH
SMILES: CCCCCCCCCCCCC(=O)N[C@@H](CCC(=O)NCCOCCOCC(=O)NCCOCCOCC(=O)N[C@@H](CCCCNC(=N)N)C(=O)N[C@@H](CCC(N)=O)C(=O)N[C@@H](CCCCNC(=N)N)C(=O)N1CCC[C@H]1C(=O)N[C@@H](CCCCNC(=N)N)C(=O)N[C@@H](CC1CCCCC1)C(=O)N[C@@H](CO)C(=O)N[C@@H](Cc1c[nH]cn1)C(=O)N[C@@H](CCCCN)C(=O)NCC(=O)N1[C@H](C(=O)N[C@@H](CCCC)C(=O)N2CCC[C@H]2C(=O)N[C@@H](Cc2ccc(Cl)cc2)C(=O)O)C[C@@H]2CCCC[C@@H]21)C(=O)O
B3: SEQ ID NO: 329 (peptide)
peptide: Tridecanoyl-[γGlu][AEEA][AEEA][hArg][dR]Q[hArg]P[Nle][NMeL]AAKG[Oic][Phe(4-I)]P[dBip]-OH
SMILES: CCCCCCCCCCCCC(=O)N[C@@H](CCC(=O)NCCOCCOCC(=O)NCCOCCOCC(=O)N[C@@H](CCCCNC(=N)N)C(=O)N[C@H](CCCNC(=N)N)C(=O)N[C@@H](CCC(N)=O)C(=O)N[C@@H](CCCCNC(=N)N)C(=O)N1CCC[C@H]1C(=O)N[C@@H](CCCC)C(=O)N(C)[C@@H](CC(C)C)C(=O)N[C@@H](C)C(=O)N[C@@H](C)C(=O)N[C@@H](CCCCN)C(=O)NCC(=O)N1[C@H](C(=O)N[C@@H](Cc2ccc(I)cc2)C(=O)N2CCC[C@H]2C(=O)N[C@H](Cc2ccc(-c3ccccc3)cc2)C(=O)O)C[C@@H]2CCCC[C@@H]21)C(=O)O
B4: SEQ ID NO: 331 (peptide)
peptide: Tridecanoyl-[γGlu][AEEA][AEEA][hArg][dR]Q[hArg]PK[NMeL]AA[Nle]G[Oic][Phe(4-I)]P[dBip]-OH
SMILES: CCCCCCCCCCCCC(=O)N[C@@H](CCC(=O)NCCOCCOCC(=O)NCCOCCOCC(=O)N[C@@H](CCCCNC(=N)N)C(=O)N[C@H](CCCNC(=N)N)C(=O)N[C@@H](CCC(N)=O)C(=O)N[C@@H](CCCCNC(=N)N)C(=O)N1CCC[C@H]1C(=O)N[C@@H](CCCCN)C(=O)N(C)[C@@H](CC(C)C)C(=O)N[C@@H](C)C(=O)N[C@@H](C)C(=O)N[C@@H](CCCC)C(=O)NCC(=O)N1[C@H](C(=O)N[C@@H](Cc2ccc(I)cc2)C(=O)N2CCC[C@H]2C(=O)N[C@H](Cc2ccc(-c3ccccc3)cc2)C(=O)O)C[C@@H]2CCCC[C@@H]21)C(=O)O
B5: SEQ ID NO: 315 (peptide)
peptide: Tridecanoyl-[γGlu][AEEA][AEEA][hArg][Nle]Q[hArg]P[dR][NMeL]SHKG[Oic][Phe(4-I)]P[dBip]-OH
SMILES: CCCCCCCCCCCCC(=O)N[C@@H](CCC(=O)NCCOCCOCC(=O)NCCOCCOCC(=O)N[C@@H](CCCCNC(=N)N)C(=O)N[C@@H](CCCC)C(=O)N[C@@H](CCC(N)=O)C(=O)N[C@@H](CCCCNC(=N)N)C(=O)N1CCC[C@H]1C(=O)N[C@H](CCCNC(=N)N)C(=O)N(C)[C@@H](CC(C)C)C(=O)N[C@@H](CO)C(=O)N[C@@H](Cc1c[nH]cn1)C(=O)N[C@@H](CCCCN)C(=O)NCC(=O)N1[C@H](C(=O)N[C@@H](Cc2ccc(I)cc2)C(=O)N2CCC[C@H]2C(=O)N[C@H](Cc2ccc(-c3ccccc3)cc2)C(=O)O)C[C@@H]2CCCC[C@@H]21)C(=O)O
B6: SEQ ID NO: 327 (peptide)
peptide: Tridecanoyl-[γGlu][AEEA][AEEA][hArg][Nle]Q[hArg]P[dR][NMeL]SAKG[Oic][Phe(4-I)]P[dBip]-OH
SMILES: CCCCCCCCCCCCC(=O)N[C@@H](CCC(=O)NCCOCCOCC(=O)NCCOCCOCC(=O)N[C@@H](CCCCNC(=N)N)C(=O)N[C@@H](CCCC)C(=O)N[C@@H](CCC(N)=O)C(=O)N[C@@H](CCCCNC(=N)N)C(=O)N1CCC[C@H]1C(=O)N[C@H](CCCNC(=N)N)C(=O)N(C)[C@@H](CC(C)C)C(=O)N[C@@H](CO)C(=O)N[C@@H](C)C(=O)N[C@@H](CCCCN)C(=O)NCC(=O)N1[C@H](C(=O)N[C@@H](Cc2ccc(I)cc2)C(=O)N2CCC[C@H]2C(=O)N[C@H](Cc2ccc(-c3ccccc3)cc2)C(=O)O)C[C@@H]2CCCC[C@@H]21)C(=O)O
B7: SEQ ID NO: 333 (peptide)
peptide: Tridecanoyl-[γGlu][AEEA][AEEA][hArg][Nle]Q[hArg]P[dR][NMeL]AAKG[Oic][Phe(4-I)]P[dBip]-OH
SMILES: CCCCCCCCCCCCC(=O)N[C@@H](CCC(=O)NCCOCCOCC(=O)NCCOCCOCC(=O)N[C@@H](CCCCNC(=N)N)C(=O)N[C@@H](CCCC)C(=O)N[C@@H](CCC(N)=O)C(=O)N[C@@H](CCCCNC(=N)N)C(=O)N1CCC[C@H]1C(=O)N[C@H](CCCNC(=N)N)C(=O)N(C)[C@@H](CC(C)C)C(=O)N[C@@H](C)C(=O)N[C@@H](C)C(=O)N[C@@H](CCCCN)C(=O)NCC(=O)N1[C@H](C(=O)N[C@@H](Cc2ccc(I)cc2)C(=O)N2CCC[C@H]2C(=O)N[C@H](Cc2ccc(-c3ccccc3)cc2)C(=O)O)C[C@@H]2CCCC[C@@H]21)C(=O)O
B8: SEQ ID NO: 310 (peptide)
peptide: Tridecanoyl-[γGlu][AEEA][AEEA][hArg]Q[hArg]P[NMeR][Cha]SHKG[Oic][Nle]P[Phe(4-Cl)]-OH
SMILES: CCCCCCCCCCCCC(=O)N[C@@H](CCC(=O)NCCOCCOCC(=O)NCCOCCOCC(=O)N[C@@H](CCCCNC(=N)N)C(=O)N[C@@H](CCC(N)=O)C(=O)N[C@@H](CCCCNC(=N)N)C(=O)N1CCC[C@H]1C(=O)N(C)[C@@H](CCCNC(=N)N)C(=O)N[C@@H](CC1CCCCC1)C(=O)N[C@@H](CO)C(=O)N[C@@H](Cc1c[nH]cn1)C(=O)N[C@@H](CCCCN)C(=O)NCC(=O)N1[C@H](C(=O)N[C@@H](CCCC)C(=O)N2CCC[C@H]2C(=O)N[C@@H](Cc2ccc(Cl)cc2)C(=O)O)C[C@@H]2CCCC[C@@H]21)C(=O)O
B9: SEQ ID NO: 311 (peptide)
peptide: Tridecanoyl-[γGlu][AEEA][AEEA][hArg][dR]Q[hArg]P[Nle][NMeL]SHKG[Oic][Phe(4-I)]P[dBip]-OH
SMILES: CCCCCCCCCCCCC(=O)N[C@@H](CCC(=O)NCCOCCOCC(=O)NCCOCCOCC(=O)N[C@@H](CCCCNC(=N)N)C(=O)N[C@H](CCCNC(=N)N)C(=O)N[C@@H](CCC(N)=O)C(=O)N[C@@H](CCCCNC(=N)N)C(=O)N1CCC[C@H]1C(=O)N[C@@H](CCCC)C(=O)N(C)[C@@H](CC(C)C)C(=O)N[C@@H](CO)C(=O)N[C@@H](Cc1c[nH]cn1)C(=O)N[C@@H](CCCCN)C(=O)NCC(=O)N1[C@H](C(=O)N[C@@H](Cc2ccc(I)cc2)C(=O)N2CCC[C@H]2C(=O)N[C@H](Cc2ccc(-c3ccccc3)cc2)C(=O)O)C[C@@H]2CCCC[C@@H]21)C(=O)O
B10: SEQ ID NO: 323 (peptide)
peptide: Tridecanoyl-[γGlu][AEEA][AEEA][hArg][dR]Q[hArg]P[Nle][NMeL]SAKG[Oic][Phe(4-I)]P[dBip]-OH
SMILES: CCCCCCCCCCCCC(=O)N[C@@H](CCC(=O)NCCOCCOCC(=O)NCCOCCOCC(=O)N[C@@H](CCCCNC(=N)N)C(=O)N[C@H](CCCNC(=N)N)C(=O)N[C@@H](CCC(N)=O)C(=O)N[C@@H](CCCCNC(=N)N)C(=O)N1CCC[C@H]1C(=O)N[C@@H](CCCC)C(=O)N(C)[C@@H](CC(C)C)C(=O)N[C@@H](CO)C(=O)N[C@@H](C)C(=O)N[C@@H](CCCCN)C(=O)NCC(=O)N1[C@H](C(=O)N[C@@H](Cc2ccc(I)cc2)C(=O)N2CCC[C@H]2C(=O)N[C@H](Cc2ccc(-c3ccccc3)cc2)C(=O)O)C[C@@H]2CCCC[C@@H]21)C(=O)O

Starred links: 1 amine or outer side, 2 acyl side, 3 side chain; linkers in the order of their positions; H or OH if unused. Non-standard residues stand in square brackets, D forms with d. *: point of attachment. dBip = N[C@H](Cc1ccc(-c2ccccc2)cc1)C(=O)O; Oic = O=C(O)[C@@H]1C[C@@H]2CCCC[C@@H]2N1; Phe(4-Cl) = N[C@@H](Cc1ccc(Cl)cc1)C(=O)O; Phe(4-I) = N[C@@H](Cc1ccc(I)cc1)C(=O)O; γGlu = O=C(O)[C@H](CCC(=O)[*:2])N[*:1]; NMeR = CN[C@@H](CCCNC(=N)N)C(=O)O; Tridecanoyl = CCCCCCCCCCCCC(=O)*; hArg = N=C(N)NCCCC[C@H](N)C(=O)O; Cha = N[C@@H](CC1CCCCC1)C(=O)O; NMeL = CN[C@@H](CC(C)C)C(=O)O; Nle = CCCC[C@H](N)C(=O)O; AEEA = NCCOCCOCC(=O)O

One assay has as its target T1, human APJ receptor. Description: cell-based or functional assay.
Consider B1, for which the “EC50 Human APJ Receptor” value was found to be 56.8 nM.
As to B2, the “EC50 Human APJ Receptor” value was determined as 0.0277 nM.
On the same count and under the same terms, the same measure for B3: 37.5 nM.
Turning to B4, the “EC50 Human APJ Receptor” value was 24.7 nM.
In the case of B5, the “EC50 Human APJ Receptor” value worked out at 3.04 nM.
The same measure, in the same setting: the same measure for B6: 14.4 nM; for B7: 36.1 nM; for B8: 0.226 nM.
Turning to B9, the “EC50 Human APJ Receptor” value turned out to be 34.7 nM.
For the molecule B10, the “EC50 Human APJ Receptor” value is 2.51 nM.

The next assay has as its target T2, rat APJ receptor. Description: cell-based or functional assay.
For B1, the “EC50 Rat APJ Receptor” value came out at 63.9 nM.
Take B2: the “EC50 Rat APJ Receptor” value worked out at 0.102 nM.
On the same count and under the same terms, the value for B3 was 36.1 nM.
As for B4, the “EC50 Rat APJ Receptor” value stood at 18.1 nM.
Same read-out and setting: the value for B5 was 4.9 nM; that for B6 was 14.8 nM; that for B7 was 46.6 nM.
As to B8, the “EC50 Rat APJ Receptor” value stood at 0.363 nM.
For B9, the “EC50 Rat APJ Receptor” value stood at 37.4 nM.
Consider B10, for which the “EC50 Rat APJ Receptor” value came out at 5.29 nM.

Source of the values: patent US10941182 (Amgen, dated 2021).
